Results as given in article PMC3736172 (Scientific Reports, 2013).
Like-named read-outs stand apart in the source and are kept apart here.

How the values were obtained:
[1] = biological target: T1, SPase (Rhodopirellula baltica, UniProt Q7UIS9); experiment: turnover to fructose and glucose-1-phosphate; assay type: cell-based; conditions: recombinant enzyme
T1 sequence (Q7UIS9 1-571): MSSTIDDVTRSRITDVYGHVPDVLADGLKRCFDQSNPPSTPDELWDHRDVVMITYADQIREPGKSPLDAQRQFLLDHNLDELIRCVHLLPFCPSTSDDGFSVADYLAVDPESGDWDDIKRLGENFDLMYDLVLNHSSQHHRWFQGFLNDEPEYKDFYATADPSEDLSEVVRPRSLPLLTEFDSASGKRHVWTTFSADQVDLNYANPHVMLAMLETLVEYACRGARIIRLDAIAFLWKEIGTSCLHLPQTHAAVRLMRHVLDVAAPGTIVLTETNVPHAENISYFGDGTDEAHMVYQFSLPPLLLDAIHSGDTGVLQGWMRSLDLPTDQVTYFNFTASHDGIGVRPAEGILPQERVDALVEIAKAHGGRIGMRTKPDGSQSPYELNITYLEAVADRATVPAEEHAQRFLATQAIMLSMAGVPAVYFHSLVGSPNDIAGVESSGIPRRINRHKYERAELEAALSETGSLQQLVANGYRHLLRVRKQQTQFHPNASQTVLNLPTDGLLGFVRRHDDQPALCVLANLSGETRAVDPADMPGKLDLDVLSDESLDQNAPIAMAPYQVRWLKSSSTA

[2] = biological target: the molecule itself; experiment: SEC
[3] = biological target: the molecule itself; experiment: SEC; remark: listed apart in the source

## OC[C@H]1O[C@@](CO)(O[C@H]2O[C@H](CO)[C@@H](O)[C@H](O)[C@H]2O)[C@@H](O)[C@@H]1O [sucrose]
[1]
  turnover to fructose and glucose-1-phosphate: it catalyzed the conversion of sucrose to fructose and glucose-1-phosphate

B1: glucosyl-3-phosphoglycerate synthase (GpgS) from Rhodopirellula baltica, recombinant 398-amino acid enzyme (enzyme)
chain: PDFYQHDMITTIHDLRSAKLDNLESMLRESTRNHDIGLVLPVTASDMRAEPFDVIVRELAQADYIASIVVSLGVAPDQSDYDETCAKIAPLGDRAKVLWTDGPEVQGLYNELIESGIDVSVPGKGRSVWTAFGYLLDDPDIETFVLHDCDIVDYDRQLLTRLCLPMVHPGLDFEFCKAYYARVTDRMHGRVVRLLVAPLLRALMQCFPENQFVRFLGNFRYPLSGEFSLTRNLARTNRVASDWGLEVGTLADVYRNTSHKRVCQVDLARLYEHKHQTLAVDQPSSGLIKMALDILTTIYRTLASQGIVFGESTFVTLRASFLRIAQDCIRQYAADARVNSLKYDRHSEEMAIEAFAQCVTQAGEIFAADPSGNPSIPNWTRVRAAFPDFTSRLRETVK
[2]
  stoichiometry N: 5

B2: mannosylglucosyl-3-phosphoglycerate synthase (MggA) from Rhodopirellula baltica, recombinant (enzyme)
chain: MKISAMKILIVHCHFERGGVTQVVDNHVHCLQGSDEIDEVALVSGPRQSGLQETTRSSASIWRIASLEYDSLRDTSLNVDEQAQNDKQAQHTAREIDERCRQAGWTRQETVVHWHNHSLGKNAASPLVIKHLADFGYSCLLQIHDFAEDQRPQNWAYLKQSHGCEKASELDAILYPHGDRLSYATLTTGDAETLVQFGIHRSRVDVLPNSVRLPTDELPEFEVATHKVQRAFDLPADFRWMLYPVRGIRRKNLGEFLLMCQLAGRPTIGAMTLMPDTPMEKRSYERWQAVAERCVENVVFNAAHHEDIQFVDNLSAASVVVSSSVAEGFGMVFLEPWLASRSVVARNLPGVTGDFINHGMRLEHLYDAVQIPGSHSWLTEANRQFQNAKTDAWKDVRRDVETALSPSASDQSISDANEWIDFARLTPAMQIEVLVRFNTDSGFAKEVRDRNAALCDALVTDARPEIIDYNRNIVAANFGPENQKQQLLNAYRKAISNESIPGTGVQNDQTMLELVENSRPFYPCRVEQLD
[3]
  stoichiometry N: 2
